Test results reported in US7345026 (INSTITUT PASTEUR, dated 2008).

Target: T1, HLA-A2.1 molecules on T2 (TAP-, HLA-A2.1+) cells (human)
T1 construct: MHC class I molecule to which peptides were added from outside; Surface HLA-A2.1 was detected with mAb BB7.2; also called H.A.-A2.1
Assay: T2 cells, peptide binding by surface HLA-A2.1 (BB7.2) flow cytometry; ratio of concentrations reaching 20% of maximal binding

In the case of LLDGTATLRL (synthetic peptide) [gp100 457-466 epitopic peptide], the “RA (relative affinity)” value is reported as 1.65 ratio to HIV 1 rt.476 reference peptide.

VLYRYGSFSV (synthetic peptide) [gp100 476-485 epitopic peptide] was tested, and the “RA (relative affinity)” value was 10 ratio to HIV 1 rt.476 reference peptide.

MLLAVLYCL (synthetic peptide) [Tyrosinase 1-9 epitopic peptide] was tested, and the “RA (relative affinity)” value was > 60 ratio to HIV 1 rt.476 reference peptide.

B1: Tyrosinase 368-376-D epitopic peptide (peptide)
peptide: YMDGTMSQV
notes: synthetic peptide; also called Tyrosinase.368-D
For B1, the “RA (relative affinity)” value was 2.27 ratio to HIV 1 rt.476 reference peptide.

In the case of ILTVILGVL (synthetic peptide) [Melan-A/MART-1 32-40 epitopic peptide], the “RA (relative affinity)” value is reported as 21.1 ratio to HIV 1 rt.476 reference peptide.
